Results as given in the supplement of paper PMC7125110.
± gives the standard error. Variants at the floor of the assay were thinned out.

B1: glmS ribozyme (parent)
chain: AUAAAAGCGCCAGAACUACAGAAAUGUAGUUGACGAGGAGGAGGUUUAUCGAAUUUUCGGCGGAUGCCUCCAAA

How the values were obtained:
Conditions in all cases: with glucosamine-6-phosphate
glucosamine-6-phosphate [1] = variants of: B1; test: self-cleavage kobs at 40 uM GlcN6P; higher = faster cleavage; RNA array
Method in brief: (§1)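 Barcoded ribozyme variants on sequenced MiSeq chips were transcribed in situ by E. coli RNA polymerase and followed at 37 °C through a hybridised Cy3 probe. Glucosamine-6-phosphate at 40 μM to 10 mM in HEPES/KCl/Mg(OAc)2 buffer was flowed in, and tiles were imaged over ~14 h. Signals were normalised to baseline and to non-cleaving reference variants, and per-tile medians were fit to one- or two-exponential decays to give kobs. Weighted Michaelis–Menten fits across concentrations gave kcat and KM.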

glucosamine-6-phosphate [2] = variants of: B1; test: self-cleavage kobs at 10000 uM GlcN6P; higher = faster cleavage; RNA array
Method in brief: as §1

glucosamine-6-phosphate [3] = variants of: B1; test: self-cleavage kobs at 640 uM GlcN6P; higher = faster cleavage; RNA array
Method in brief: as §1

glucosamine-6-phosphate [4] = variants of: B1; test: self-cleavage kobs at 2500 uM GlcN6P; higher = faster cleavage; RNA array
Method in brief: as §1

glucosamine-6-phosphate [5] = variants of: B1; test: self-cleavage kobs at 160 uM GlcN6P; higher = faster cleavage; RNA array
Method in brief: as §1

| Variant | self-cleavage kobs at 40 uM GlcN6P (glucosamine-6-phosphate [1]) [s⁻¹] | self-cleavage kobs at 10000 uM GlcN6P (glucosamine-6-phosphate [2]) [s⁻¹] | self-cleavage kobs at 640 uM GlcN6P (glucosamine-6-phosphate [3]) [s⁻¹] | self-cleavage kobs at 2500 uM GlcN6P (glucosamine-6-phosphate [4]) [s⁻¹] | self-cleavage kobs at 160 uM GlcN6P (glucosamine-6-phosphate [5]) [s⁻¹] |
| --- | --- | --- | --- | --- | --- |
| C8A A12U A33C A39G A53C C68A | < 1e-05 |  |  |  |  |
| C8G C50A C61G G63A C71G | 8.24e-05 ± 3.5e-05 | 0.000367 ± 0.00014 |  |  |  |
| C8A U45A A53U | < 1e-05 |  |  |  |  |
| C8A C11U | < 1e-05 | < 1e-05 | < 1e-05 | < 1e-05 |  |
| C8A C11G | < 1e-05 | < 1e-05 | < 1e-05 | < 1e-05 | < 1e-05 |
| C8G G32U C34A | < 1e-05 |  |  |  |  |
| G7U G13U A53G | < 1e-05 |  |  |  |  |
| C8A G40C | < 1e-05 | < 1e-05 | < 1e-05 | < 1e-05 | < 1e-05 |
| C8G C61U G66A C70U | < 1e-05 |  |  |  |  |
| G7U U56A | < 1e-05 | < 1e-05 | < 1e-05 |  | < 1e-05 |
| G7U G41U A48U | < 1e-05 |  |  |  |  |
| C8A G29U C50U G51U C68G | 6.11e-05 ± 2.7e-05 |  |  |  |  |
| C8G G37C C67G | < 1e-05 | < 1e-05 |  | < 1e-05 |  |
| C8G A15U G62C | < 1e-05 |  | < 1e-05 |  |  |
| C8A U25C G37U U69G | 0.000134 ± 3.6e-05 |  | 0.000488 ± 0.00011 |  |  |
| G7U U54G C70G C71U | 7.3e-05 ± 2.8e-05 | 5.65e-05 ± 2.5e-05 |  |  |  |
| C8A G13A U47G G60U | < 1e-05 |  |  |  |  |
| C8G C50G C67A | 0.000144 ± 2.5e-05 | 0.000113 ± 1.8e-05 |  |  |  |
| G7U U45G C71A | < 1e-05 | < 1e-05 |  | < 1e-05 |  |
| G7U G29C G43U G51A | < 1e-05 | < 1e-05 |  |  |  |
| C8A A15U A36G | < 1e-05 |  |  |  |  |
| C8A C10G | < 1e-05 | < 1e-05 | < 1e-05 | < 1e-05 | < 1e-05 |
| C8G G9C U55A | < 1e-05 | < 1e-05 | < 1e-05 | < 1e-05 |  |

| Variant | self-cleavage kobs at 40 uM GlcN6P (glucosamine-6-phosphate [1]) [s⁻¹] | self-cleavage kobs at 10000 uM GlcN6P (glucosamine-6-phosphate [2]) [s⁻¹] | self-cleavage kobs at 640 uM GlcN6P (glucosamine-6-phosphate [3]) [s⁻¹] | self-cleavage kobs at 2500 uM GlcN6P (glucosamine-6-phosphate [4]) [s⁻¹] | self-cleavage kobs at 160 uM GlcN6P (glucosamine-6-phosphate [5]) [s⁻¹] |
| --- | --- | --- | --- | --- | --- |
| G7U G37C C61A C68G C70U | 0.000181 ± 5.8e-05 | 9.36e-05 ± 2.7e-05 |  |  |  |
| G7U G29C C61U | < 1e-05 |  |  |  |  |
| G7U U49A | < 1e-05 | < 1e-05 | < 1e-05 | < 1e-05 | < 1e-05 |
| C8A G9A A33U | < 1e-05 |  |  |  |  |
| C8A U47C C58G G66U | < 1e-05 | < 1e-05 |  | < 1e-05 |  |
| C8A G66U | < 1e-05 |  |  | < 1e-05 | < 1e-05 |
| G7U U31A | < 1e-05 | < 1e-05 | < 1e-05 | < 1e-05 | < 1e-05 |
| C8G C71A | < 1e-05 |  | < 1e-05 | < 1e-05 | < 1e-05 |
| C8G C71U | < 1e-05 | < 1e-05 | < 1e-05 | < 1e-05 | < 1e-05 |
| C8A U49A | < 1e-05 |  | < 1e-05 |  |  |
| C8G C67A | < 1e-05 | < 1e-05 | < 1e-05 | < 1e-05 | < 1e-05 |
| C8A A15U | < 1e-05 | < 1e-05 | < 1e-05 | < 1e-05 | < 1e-05 |
| G7U G35U | < 1e-05 | < 1e-05 |  | < 1e-05 | < 1e-05 |
| C8A A42U G62U | < 1e-05 |  |  | < 1e-05 |  |
| C8G A15C | < 1e-05 | < 1e-05 | < 1e-05 | < 1e-05 | < 1e-05 |
| C8A U30G | < 1e-05 | < 1e-05 | < 1e-05 | < 1e-05 |  |
| G7U U31G G62A | < 1e-05 | < 1e-05 |  | < 1e-05 |  |
| C8A G29C G35A C67G | < 1e-05 |  |  |  |  |
| C8G G37C | < 1e-05 | < 1e-05 | < 1e-05 |  |  |
| C8A C34U U47C C67U | < 1e-05 | < 1e-05 |  |  |  |
| C8A U46A | < 1e-05 | < 1e-05 | < 1e-05 | < 1e-05 | < 1e-05 |
| C8G C58G G60A | < 1e-05 | < 1e-05 |  |  |  |
| C8A C11G G38U G60A | < 1e-05 |  | < 1e-05 |  | < 1e-05 |

| Variant | self-cleavage kobs at 40 uM GlcN6P (glucosamine-6-phosphate [1]) [s⁻¹] | self-cleavage kobs at 10000 uM GlcN6P (glucosamine-6-phosphate [2]) [s⁻¹] | self-cleavage kobs at 640 uM GlcN6P (glucosamine-6-phosphate [3]) [s⁻¹] | self-cleavage kobs at 2500 uM GlcN6P (glucosamine-6-phosphate [4]) [s⁻¹] | self-cleavage kobs at 160 uM GlcN6P (glucosamine-6-phosphate [5]) [s⁻¹] |
| --- | --- | --- | --- | --- | --- |
| C8A U47G | < 1e-05 |  |  |  |  |
| C8G C10G C11U A33G U47C C70A C71A | < 1e-05 |  |  |  |  |
| G7U G32U U49A | < 1e-05 | < 1e-05 | < 1e-05 | < 1e-05 |  |
| C8G C10A G60U | < 1e-05 | < 1e-05 |  |  |  |
| C8A G60U | < 1e-05 |  | < 1e-05 | < 1e-05 | < 1e-05 |
| C8G A39C | < 1e-05 | < 1e-05 | < 1e-05 | < 1e-05 | < 1e-05 |
| C8A C11G A12G C68U | < 1e-05 |  |  |  |  |
| G7U U31C G59U | < 1e-05 |  |  |  |  |
| C8A G44C C70A | < 1e-05 | < 1e-05 |  |  |  |
| C8A A52C | < 1e-05 | < 1e-05 | < 1e-05 |  | < 1e-05 |
| C8G G9C C16A G38A G40U U49G U57C | < 1e-05 | < 1e-05 |  |  |  |
| C8A C50G | 5.03e-05 ± 1.7e-05 |  | 0.00101 ± 0.00048 | 9.84e-05 ± 2.6e-05 | 0.000112 ± 3.3e-05 |
| G7U U49A A52C G60C C61U | < 1e-05 | < 1e-05 | < 1e-05 | < 1e-05 |  |
| C8A C58U | < 1e-05 | < 1e-05 | < 1e-05 | < 1e-05 | < 1e-05 |
| C8A G13U G41C U55C U65A U69G | < 1e-05 |  |  |  |  |
| C8G C34A A53C G60C | < 1e-05 |  | < 1e-05 | < 1e-05 | < 1e-05 |
| C8A U49A G51A | < 1e-05 | < 1e-05 |  |  |  |
| G7U G29C | < 1e-05 | < 1e-05 | < 1e-05 | < 1e-05 | < 1e-05 |
| C8A C11G U46G | < 1e-05 | < 1e-05 |  |  |  |
| C8G C11G U30C C34G G44U G62A | < 1e-05 | < 1e-05 |  |  |  |
| C8G G32C G62U | < 1e-05 | < 1e-05 |  |  |  |
| C8A C68G | 0.000368 ± 0.00014 |  |  |  |  |
| C8A A36U | < 1e-05 | < 1e-05 | < 1e-05 | < 1e-05 | < 1e-05 |

| Variant | self-cleavage kobs at 40 uM GlcN6P (glucosamine-6-phosphate [1]) [s⁻¹] | self-cleavage kobs at 10000 uM GlcN6P (glucosamine-6-phosphate [2]) [s⁻¹] | self-cleavage kobs at 640 uM GlcN6P (glucosamine-6-phosphate [3]) [s⁻¹] | self-cleavage kobs at 2500 uM GlcN6P (glucosamine-6-phosphate [4]) [s⁻¹] | self-cleavage kobs at 160 uM GlcN6P (glucosamine-6-phosphate [5]) [s⁻¹] |
| --- | --- | --- | --- | --- | --- |
| G7U U30G | < 1e-05 | < 1e-05 |  |  | < 1e-05 |
| G7U U30A | < 1e-05 |  | < 1e-05 | < 1e-05 | < 1e-05 |
| C8A A12U A39G | < 1e-05 | < 1e-05 | < 1e-05 |  |  |
| G7U G32U | < 1e-05 | < 1e-05 | < 1e-05 | < 1e-05 | < 1e-05 |
| C8G A36C | < 1e-05 |  | < 1e-05 | < 1e-05 | < 1e-05 |
| C8G A36G | < 1e-05 | < 1e-05 | < 1e-05 |  | < 1e-05 |
| C8A U31C G40A A42C U65A G66A | < 1e-05 |  |  |  |  |
| C8G A64C | < 1e-05 | < 1e-05 |  | < 1e-05 | < 1e-05 |
| C8G A64G | < 1e-05 | < 1e-05 |  | < 1e-05 | < 1e-05 |
| C8A A36U A64U C70U | < 1e-05 |  | < 1e-05 | < 1e-05 |  |
| G7U G13A C67U | < 1e-05 |  |  |  |  |
| G7U G60U | < 1e-05 | < 1e-05 | < 1e-05 |  | < 1e-05 |
| C8A C67U | < 1e-05 | < 1e-05 | < 1e-05 |  | < 1e-05 |
| C8A C11U A15U C50G U56A G63A | 5.94e-05 ± 2e-05 | 0.00011 ± 2.4e-05 |  | 0.000104 ± 5.1e-05 |  |
| C8G G32A G59U | < 1e-05 | < 1e-05 |  | < 1e-05 |  |
| G7U G38U U46G | < 1e-05 |  |  |  |  |
| C8A A64U | < 1e-05 | < 1e-05 | < 1e-05 | < 1e-05 | < 1e-05 |
| C8G C16G G41A U47A | < 1e-05 | < 1e-05 | < 1e-05 | < 1e-05 |  |
| C8G C70A | < 1e-05 | < 1e-05 |  | < 1e-05 |  |
| C8G G29U | < 1e-05 | < 1e-05 | < 1e-05 | < 1e-05 | < 1e-05 |
| C8A U31G | < 1e-05 | < 1e-05 | < 1e-05 | < 1e-05 | < 1e-05 |
